In article PMC6805484 (2019):

B1: GFP-MKRN1^wt (Makorin Ring Finger Protein 1, wild type, N-terminally GFP-tagged) [human] / cytoplasmic poly(A)-binding protein PABPC4 (endogenous) [human (endogenous in HEK293T)] (parent complex)
chain 1: MAEAATPGTTATTSGAGAAAATAAAASPTPIPTVTAPSLGAGGGGGGSDGSGGGWTKQVTCRYFMHGVCKEGDNCRYSHDLSDSPYSVVCKYFQRGYCIYGDRCRYEHSKPLKQEEATATELTTKSSLAASSSLSSIVGPLVEMNTGEAESRNSNFATVGAGSEDWVNAIEFVPGQPYCGRTAPSCTEAPLQGSVTKEESEKEQTAVETKKQLCPYAAVGECRYGENCVYLHGDSCDMCGLQVLHPMDAAQRSQHIKSCIEAHEKDMELSFAVQRSKDMVCGICMEVVYEKANPSERRFGILSNCNHTYCLKCIRKWRSAKQFESKIIKSCPECRITSNFVIPSEYWVEEKEEKQKLILKYKEAMSNKACRYFDEGRGSCPFGGNCFYKHAYPDGRREEPQRQKVGTSSRYRAQRRNHFWELIEERENSNPFDNDEEEVVTFELGEMLLMLLAAGGDDELTDSEDEWDLFHDELEDFYDLDL
chain 2: MNAAASSYPMASLYVGDLHSDVTEAMLYEKFSPAGPVLSIRVCRDMITRRSLGYAYVNFQQPADAERALDTMNFDVIKGKPIRIMWSQRDPSLRKSGVGNVFIKNLDKSIDNKALYDTFSAFGNILSCKVVCDENGSKGYAFVHFETQEAADKAIEKMNGMLLNDRKVFVGRFKSRKEREAELGAKAKEFTNVYIKNFGEEVDDESLKELFSQFGKTLSVKVMRDPNGKSKGFGFVSYEKHEDANKAVEEMNGKEISGKIIFVGRAQKKVERQAELKRKFEQLKQERISRYQGVNLYIKNLDDTIDDEKLRKEFSPFGSITSAKVMLEDGRSKGFGFVCFSSPEEATKAVTEMNGRIVGSKPLYVALAQRKEERKAHLTNQYMQRVAGMRALPANAILNQFQPAAGGYFVPAVPQAQGRPPYYTPNQLAQMRPNPRWQQGGRPQGFQGMPSAIRQSGPRPTLRHLAPTGSECPDRLAMDFGGAGAAQQGLTDSCQSGGVPTAVQNLAPRAAVAAAAPRAVAPYKYASSVRSPHPAIQPLQAPQPAVHVQGQEPLTASMLAAAPPQEQKQMLGERLFPLIQTMHSNLAGKITGMLLEIDNSELLHMLESPESLRSKVDEAVAVLQAHHAKKEAAQKVGAVAAATS

Variants of: B1
Assay: AP with quantitative MS-based proteomics (SILAC); HEK293T cells; combined ratios of three replicates; read off a plot

screen value [z-score] | Variant
~-9.1 | chain 1 A169S, chain 1 F172A, chain 1 P174A
